Source: patent US20130217613A1 (MARQUETTE UNIVERSITY, published 2013)

What was measured:
[1] = biological target: T1, His-tagged human Dpy-30 domain only (Dpy-30 45-99) (human, UniProt Q9C005 45-99); assay: Ni-NTA pulldown of co-expressed proteins, GST western blot
T1 construct: range 45-99; also called the Dpy-30 domain; Dpy-30 domain alone; not shown: His tag and vector-encoded residues of pET-28a

[2] = biological target: T2, His-tagged human Dpy-30 protein (full length) (human, UniProt Q9C005 1-99); assay: as above
T2 construct: range 1-99; also called His-Dpy-30; HDpy-30; not shown: His tag and vector-encoded residues of pET-28a
T2 sequence (Q9C005 whole entry): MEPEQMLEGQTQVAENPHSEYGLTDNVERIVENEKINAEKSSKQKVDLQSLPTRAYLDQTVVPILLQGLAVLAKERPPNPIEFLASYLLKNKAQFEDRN

T1 sequence (Q9C005 45-99): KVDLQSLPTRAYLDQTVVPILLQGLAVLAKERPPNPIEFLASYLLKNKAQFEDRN

B1: GST-tagged RSP3 280-316 with V300P mutation (other)
chain: PWLKEQAIGYLARGVVARRVPDKLVEDAAAALAANRS
notes: also called pRSP3V300P product; not shown: N-terminal GST tag (from pGEX-2T) and its junction
Question: What does the source list for B1?
Answer: binding result [1]: no binding; binding result [2]: no binding
